Experimental data: patent US20220010008A1
Where “and” joins values, the source holds several entries; their conditions need not be identical. Equal values may be shown once.

Columns and labels:
[1] = target: recombinant human IL-5 protein (human) (UniProt P05113); assay: FACS blocking: biotin-IL-5 bound to CHOK1 IL-5Ra/CSF2RB cells, Ab 6.6667 nM
[2] = target: recombinant human IL-5 protein (human) (UniProt P05113); assay: ELISA, biotin-human IL-5 on streptavidin plate, Ab 0.0009 nM
[3] = target: recombinant human IL-5 protein (human) (UniProt P05113); assay: FACS blocking: biotin-IL-5 bound to CHOK1 IL-5Ra/CSF2RB cells, Ab 0.0533 nM
[4] = target: recombinant human IL-5 protein (human) (UniProt P05113); assay: FACS blocking: biotin-IL-5 bound to CHOK1 IL-5Ra/CSF2RB cells, Ab 0.0107 nM
[5] = target: recombinant human IL-5 protein (human) (UniProt P05113); assay: ELISA, biotin-human IL-5 on streptavidin plate, Ab 2.6667 nM
[6] = target: recombinant human IL-5 protein (human) (UniProt P05113); assay: FACS blocking: biotin-IL-5 bound to CHOK1 IL-5Ra/CSF2RB cells, Ab 1.3333 nM
[7] = target: recombinant human IL-5 protein (human) (UniProt P05113); assay: FACS blocking: biotin-IL-5 bound to CHOK1 IL-5Ra/CSF2RB cells, Ab 0.2667 nM
[8] = target: recombinant human IL-5 protein (human) (UniProt P05113); assay: FACS blocking: biotin-IL-5 bound to CHOK1 IL-5Ra/CSF2RB cells, Ab 0.0021 nM
[9] = target: recombinant human IL-5 protein (human) (UniProt P05113); assay: cell-based or functional assay
[10] = target: recombinant human IL-5 protein (human) (UniProt P05113); assay: ELISA, biotin-human IL-5 on streptavidin plate, Ab 0.0043 nM
[11] = target: recombinant human IL-5 protein (human) (UniProt P05113); assay: ELISA, biotin-human IL-5 on streptavidin plate, Ab 0.5333 nM
[12] = target: recombinant human IL-5 protein (human) (UniProt P05113); assay: FACS blocking: biotin-IL-5 bound to CHOK1 IL-5Ra/CSF2RB cells, Ab 33.3333 nM
[13] = target: recombinant human IL-5 protein (human) (UniProt P05113); assay: SPR, human IL-5 immobilized on CM5 chip, chimeric antibody as analyte, 1:1 global fit
[14] = target: recombinant human IL-5 protein (human) (UniProt P05113); assay: ELISA, biotin-human IL-5 on streptavidin plate, Ab 0.1067 nM
[15] = target: recombinant human IL-5 protein (human) (UniProt P05113); assay: FACS blocking: biotin-IL-5 bound to CHOK1 IL-5Ra/CSF2RB cells, Ab 0.0004 nM
[16] = target: recombinant human IL-5 protein (human) (UniProt P05113); assay: ELISA, biotin-human IL-5 on streptavidin plate, Ab 0.0213 nM
[17] = target: recombinant human IL-5 protein (human) (UniProt P05113); assay: ELISA, biotin-human IL-5 on streptavidin plate, Ab 13.3333 nM
[18] = target: recombinant human IL-5 protein (human) (UniProt P05113); assay: ELISA, biotin-human IL-5 on streptavidin plate, Ab 0.0002 nM
[19] = target: recombinant human IL-5 protein with His tag (human) (UniProt P05113); assay: ELISA, biotin-human IL-5 on streptavidin; antibody 0.0213 nM
[20] = target: recombinant human IL-5 protein with His tag (human) (UniProt P05113); assay: ELISA, biotin-human IL-5 on streptavidin; antibody 0.0002 nM
[21] = target: recombinant human IL-5 protein with His tag (human) (UniProt P05113); assay: ELISA, biotin-human IL-5 on streptavidin; antibody 0.1067 nM
[22] = target: recombinant human IL-5 protein with His tag (human) (UniProt P05113); assay: ELISA, biotin-human IL-5 on streptavidin; antibody 2.6667 nM
[23] = target: recombinant human IL-5 protein with His tag (human) (UniProt P05113); assay: ELISA, biotin-human IL-5 on streptavidin; antibody 0.0009 nM
[24] = target: recombinant human IL-5 protein with His tag (human) (UniProt P05113); assay: ELISA, biotin-human IL-5 on streptavidin; antibody 0.5333 nM
[25] = target: recombinant human IL-5 protein with His tag (human) (UniProt P05113); assay: ELISA, biotin-human IL-5 on streptavidin; antibody 0.0043 nM
[26] = target: recombinant human IL-5 protein with His tag (human) (UniProt P05113); assay: ELISA, biotin-human IL-5 on streptavidin; antibody 13.3333 nM

B1: 147D7H2 mouse-human chimeric antibody (antibody, human IgG4, V domains shown)
VH: EVQLQQSGAELVKPGASVKLSCTASGFNIKDYFIHWVKQRTEQGLEWIGRIDTEDGETKYAPKFQGKATITIDTSSNTAYLYFSSLTSEDTAMYYCARYGNYVAMDYWGQGTSVTVSS
VL: QIVLTQSPALMSASPGEKVTMTCSASSSVSYMFWYQQKPSSSPKPWIYLTSKLASGVPARFSGSGSGTSYSLTISSVEAEDAATYYCQQWNSNPYTFGGGTKLEIK
Fluorescence intensity [1]: 36 MFI | OD450 nm [2]: 0.102 OD450 nm and 0.104 OD450 nm | Fluorescence intensity [3]: 94 MFI | Fluorescence intensity [4]: 86 MFI | OD450 nm [5]: 3.22 OD450 nm and 3.35 OD450 nm | Fluorescence intensity [6]: 52 MFI | Fluorescence intensity [7]: 76 MFI | Fluorescence intensity [8]: 88 MFI | RLU, CTLL-2 proliferation with IL-5, Ab 0.000170667 nM [9]: 50700 RLU and 51700 RLU | RLU, CTLL-2 proliferation with IL-5, Ab 0.000853333 nM [9]: 50800 RLU and 50700 RLU | RLU, CTLL-2 proliferation with IL-5, Ab 0.004266667 nM [9]: 41400 RLU and 48200 RLU | RLU, CTLL-2 proliferation with IL-5, Ab 0.02133333 nM [9]: 33800 RLU and 36400 RLU | RLU, CTLL-2 proliferation with IL-5, Ab 0.1066667 nM [9]: 12700 RLU and 13200 RLU | RLU, CTLL-2 proliferation with IL-5, Ab 0.5333334 nM [9]: 9570 RLU and 10400 RLU | RLU, CTLL-2 proliferation with IL-5, Ab 2.666667 nM [9]: 8620 RLU and 8160 RLU | RLU, CTLL-2 proliferation with IL-5, Ab 13.33333 nM [9]: 7310 RLU and 6690 RLU | RLU, CTLL-2 proliferation with IL-5, Ab 66.66666 nM [9]: 5230 RLU and 5240 RLU | RLU, CTLL-2 proliferation with IL-5, Ab 3.41333E-05 nM [9]: 56100 RLU and 52200 RLU | RLU, TF-1 proliferation with IL-5, Ab 0.00001 nM [9]: 99500 RLU and 101000 RLU | RLU, TF-1 proliferation with IL-5, Ab 0.00003 nM [9]: 100000 RLU and 95000 RLU | RLU, TF-1 proliferation with IL-5, Ab 0.00017 nM [9]: 96400 RLU and 88800 RLU | RLU, TF-1 proliferation with IL-5, Ab 0.00085 nM [9]: 89200 RLU and 82900 RLU | RLU, TF-1 proliferation with IL-5, Ab 0.00427 nM [9]: 56700 RLU and 54800 RLU | RLU, TF-1 proliferation with IL-5, Ab 0.02133 nM [9]: 45300 RLU and 43900 RLU | RLU, TF-1 proliferation with IL-5, Ab 0.10667 nM [9]: 39000 RLU and 38700 RLU | RLU, TF-1 proliferation with IL-5, Ab 0.53333 nM [9]: 36400 RLU and 40100 RLU | RLU, TF-1 proliferation with IL-5, Ab 2.66667 nM [9]: 34800 RLU and 41200 RLU | RLU, TF-1 proliferation with IL-5, Ab 13.33333 nM [9]: 35700 RLU and 39000 RLU | OD450 nm [10]: 0.172 OD450 nm and 0.156 OD450 nm | OD450 nm [11]: 2.74 OD450 nm and 2.91 OD450 nm | Fluorescence intensity [12]: 31 MFI | Kd [13]: < 0.0637 nM | koff [13]: < 1e-05 s⁻¹ | kon [13]: 157000 M⁻¹ s⁻¹ | OD450 nm [14]: 1.25 OD450 nm and 1.3 OD450 nm | Fluorescence intensity [15]: 94 MFI | OD450 nm [16]: 0.406 OD450 nm and 0.385 OD450 nm | OD450 nm [17]: 3.44 OD450 nm and 3.72 OD450 nm | OD450 nm [18]: 0.103 OD450 nm and 0.101 OD450 nm

B2: 147D7H2 (murine hybridoma antibody) (antibody, V domains shown)
VH: EVQLQQSGAELVKPGASVKLSCTASGFNIKDYFIHWVKQRTEQGLEWIGRIDTEDGETKYAPKFQGKATITIDTSSNTAYLYFSSLTSEDTAMYYCARYGNYVAMDYWGQGTSVTVSS
VL: QIVLTQSPALMSASPGEKVTMTCSASSSVSYMFWYQQKPSSSPKPWIYLTSKLASGVPARFSGSGSGTSYSLTISSVEAEDAATYYCQQWNSNPYTFGGGTKLEIK
OD450 nm [19]: 0.438 and 0.475 | OD450 nm [20]: 0.073 and 0.074 | OD450 nm [21]: 1.42 and 1.47 | OD450 nm [22]: 3.09 and 3.2 | OD450 nm [23]: 0.088 and 0.09 | OD450 nm [24]: 2.76 | OD450 nm [25]: 0.158 and 0.159 | OD450 nm [26]: 3.21 and 3.52

B3: 151G3B11 mouse-human chimeric antibody (antibody, human IgG4, V domains shown)
VH: EVHLQQSGAELVKPGASVKLSCTASGFNIKDYYMHWVKQRTEQGLEWIGRIDPEDGETKYAPKFQGQATITADTSSNTANLQLSSLTSEDTAVYYCARYGNFPDYWGPGTTLTVSS
VL: QIVLTQSPALMSASPGEKVTMTCSASSSVSYMYWYQQKPRSSPKPWIYLTSKLASGVPARFSGSGSGTSYSLTISSMEAEDAATYYCQQWNSNPYTFGGGTKLEIK
Fluorescence intensity [1]: 33 MFI | OD450 nm [2]: 0.127 OD450 nm and 0.114 OD450 nm | Fluorescence intensity [3]: 82 MFI | Fluorescence intensity [4]: 85 MFI | OD450 nm [5]: 3.47 OD450 nm and 3.5 OD450 nm | Fluorescence intensity [6]: 41 MFI | Fluorescence intensity [7]: 68 MFI | Fluorescence intensity [8]: 90 MFI | RLU, CTLL-2 proliferation with IL-5, Ab 0.000170667 nM [9]: 47900 RLU and 63200 RLU | RLU, CTLL-2 proliferation with IL-5, Ab 0.000853333 nM [9]: 54300 RLU and 63000 RLU | RLU, CTLL-2 proliferation with IL-5, Ab 0.004266667 nM [9]: 51200 RLU and 58000 RLU | RLU, CTLL-2 proliferation with IL-5, Ab 0.02133333 nM [9]: 41700 RLU and 43900 RLU | RLU, CTLL-2 proliferation with IL-5, Ab 0.1066667 nM [9]: 10900 RLU and 10300 RLU | RLU, CTLL-2 proliferation with IL-5, Ab 0.5333334 nM [9]: 8370 RLU and 8250 RLU | RLU, CTLL-2 proliferation with IL-5, Ab 2.666667 nM [9]: 6580 RLU and 7940 RLU | RLU, CTLL-2 proliferation with IL-5, Ab 13.33333 nM [9]: 5750 RLU and 5810 RLU | RLU, CTLL-2 proliferation with IL-5, Ab 66.66666 nM [9]: 3690 RLU and 4030 RLU | RLU, CTLL-2 proliferation with IL-5, Ab 3.41333E-05 nM [9]: 46800 RLU and 55000 RLU | RLU, TF-1 proliferation with IL-5, Ab 0.00001 nM [9]: 95500 RLU and 93900 RLU | RLU, TF-1 proliferation with IL-5, Ab 0.00003 nM [9]: 89800 RLU and 92600 RLU | RLU, TF-1 proliferation with IL-5, Ab 0.00017 nM [9]: 76600 RLU and 80400 RLU | RLU, TF-1 proliferation with IL-5, Ab 0.00085 nM [9]: 66300 RLU and 74200 RLU | RLU, TF-1 proliferation with IL-5, Ab 0.00427 nM [9]: 41500 RLU and 46000 RLU | RLU, TF-1 proliferation with IL-5, Ab 0.02133 nM [9]: 38600 RLU and 44100 RLU | RLU, TF-1 proliferation with IL-5, Ab 0.10667 nM [9]: 41600 RLU and 38800 RLU | RLU, TF-1 proliferation with IL-5, Ab 0.53333 nM [9]: 36400 RLU and 36800 RLU | RLU, TF-1 proliferation with IL-5, Ab 2.66667 nM [9]: 38400 RLU and 36800 RLU | RLU, TF-1 proliferation with IL-5, Ab 13.33333 nM [9]: 36200 RLU and 33500 RLU | OD450 nm [10]: 0.194 OD450 nm and 0.244 OD450 nm | OD450 nm [11]: 3.03 OD450 nm and 2.93 OD450 nm | Fluorescence intensity [12]: 28 MFI | Kd [13]: < 0.0637 nM | koff [13]: < 1e-05 s⁻¹ | kon [13]: 157000 M⁻¹ s⁻¹ | OD450 nm [14]: 1.87 OD450 nm and 1.92 OD450 nm | Fluorescence intensity [15]: 95 MFI | OD450 nm [16]: 0.622 OD450 nm and 0.678 OD450 nm | OD450 nm [17]: 3.7 OD450 nm and 3.52 OD450 nm | OD450 nm [18]: 0.098 OD450 nm and 0.127 OD450 nm
